The target of the assay is 2196 HC + alphamod1 LC (human). The assay can be described thus: SPR; Biacore 8k; antibody captured on a Series S Protein A chip to ~200 RU or greater; 4X serially diluted RBD starting at 1,000 nM flowed at 50 uL/min, 120 s contact, 600 s dissociation; HBS-EP+ buffer; 1:1 Langmuir fitting, steady state analysis, or two-state reaction fitting. Background: Surface plasmon resonance follows binding to a sensor surface in real time, without labels.
Chain of 2196 HC + alphamod1 LC (human) (heavy, as listed by the source, chain 1 of 2): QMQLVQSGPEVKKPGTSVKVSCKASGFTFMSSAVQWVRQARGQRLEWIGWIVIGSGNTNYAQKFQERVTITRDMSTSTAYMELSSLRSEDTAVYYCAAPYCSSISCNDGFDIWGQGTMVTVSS
Chain of 2196 HC + alphamod1 LC (human) (light, as listed by the source, chain 2 of 2): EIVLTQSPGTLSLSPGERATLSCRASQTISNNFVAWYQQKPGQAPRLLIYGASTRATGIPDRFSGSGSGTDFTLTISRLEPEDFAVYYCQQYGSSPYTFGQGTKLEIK

Broadly, the Kd is the free concentration of one partner at which half of the binding sites on the other are occupied at equilibrium, for simple one-to-one binding. In the case of “RBD (residues 334–527 of the SARS-CoV-2 spike glycoprotein) (from UniProt P0DTC2 334-527) (domain or fragment)”, the Kd is 99.4 nM.

(Values after paper PMC11764276.)
